One substance from patent US20150160214A1, “Quantitation of Cellular Adhesion Dynamics Across Immobilized Receptors Under Rheological Shear Flow” (Mayo Foundation for Medical Education and Research, priority 2013, published 2015) can be followed below.

Format in all cases: physicochemical
A short description of series [1]: GdnHCl- and urea-induced unfolding at 25° C. by circular dichroism (Example 2). Particulars: CD. Here is the method:
The thermodynamic stability of A1 and of RCAM A1 was determined from GdnHCl and urea induced unfolding measured via CD and FL at 25° Celsius (FIG. 14). […] Complete unfolding of A1 and of RCAM A1 occurs in GdnHCl but not in urea. However, in presence of urea, a small expansion of RCAM A1 compared to A1 in its intermediate state is observed.
Urea and GdnHCl induced unfolding of A1 and of RCAM A1 at 25° Celsius was monitored via CD at 222 nm on an Aviv Biomedical Model 420C circular dichroism spectrometer. A 1 mm quartz cuvette and protein concentrations of 5 or 10 μM were used. Samples were equilibrated in their urea or GdnHCl containing buffer at 25° Celsius overnight. CD-signal was averaged for 5 to 10 min using an integration time of 1 s. CD-spectra were measured at 20° Celsius using 0.1 or 1 mm quartz cells with a step width of 1 nm between 190 and 260 nm with an integration time of 20 s and a bandwidth of 1 nm. CD-spectra in the near UV range (260-360 nm) were recorded using a 5 cm quartz cell with a 120 s integration time. Transition curves and protein spectra were corrected for the CD Signal of the corresponding buffer.
Background: CD spectra are sensitive to the conformation of chiral molecules.

The nature of series [2]: Irreversible thermal denaturation by CD, intrinsic fluorescence and ANS fluorescence (Example 2). Particulars: 2° Celsius/min. Here is the method:
The unfolding of disulfide-intact A1 and RCAM A1 was also monitored via CD at 222 nm, intrinsic protein fluorescence at 280 nm/359 nm and ANS fluorescence at 350 nm/495 nm as a function of temperature.
CD thermalscans were recorded between 10 and 95° Celsius at 222 nm with a protein concentration of 1 μM in a 1 cm quartz cell under moderate stirring. Prior to each measurement protein samples were equilibrated at 10° Celsius for 10-15 min in order to obtain a stable baseline. The scanrate for all Thermalscans was 2° Celsius/min. The integration time for each data point was 20 s, the bandwidth 1 nm. All measured CD data were converted into mean molar ellipticities per amino acid residue.
Thermalscans monitoring protein fluorescence were recorded at an emission wavelength of 359 nm after excitation at 280 nm using a protein concentration of 2 μM in a 1 cm quartz cell under moderate stirring. ANS-Thermalscans were recorded at 495 nm after Excitation at 350 nm using 1 μM protein and 100 μM ANS. Prior to any performed thermalscan samples were equilibrated for 10-15 min. The scanrate was 2° Celsius/min. At each temperature between 10 or 20° Celsius and 95° Celsius relative fluorescence intensity was collected for 4 s and averaged.

Series [3] is described as follows: Acrylamide quenching of tryptophan fluorescence (Stern-Volmer). Here is the method: This was also confirmed via acrylamide induced tryotophan fluorescence quenching performed with an excitation wavelength of 295 nm.
Initially a quenching determination was performed with disulfide-intact A1 at 20° Celsius and at 1° Celsius in order to distinguish between static and collisional quenching. […] Clear evidence for collisional quenching could be obtained for the A1-domain since the Stern-Volmer constant decreased from 2.6±0.03 to 2.2±0.03 M−1, FIG. 16A, ruling out a static quenching mechanism.
Acrylamide quenching of tryptophan was performed using an excitation wavelength of 295 nm. After the addition of a certain amount of buffered acrylamide solution the protein solution was equilibrated for ˜5 min and then a fluorescence spectrum between 320 and 400 nm was recorded. Stern-Volmer constants were determined from the fluorescence intensity at 359 nm using the Stern-Volmer equation as described by Lakowicz (Lakowicz:2006)
where KD is the Stern-Volmer quenching constant and KD-1 is the concentration of acrylamide at which F0/F=2 and 50% of the fluorescence intensity is quenched.

“A1-1238: Recombinant human vWF A1 domain, amino acids Q1238-P1471, with N-terminal 6×His-Tag, disulfide intact”: in series [1] (GdnHCl), the “cm, I ⇄ D” value was found to be 4.40 ± 0.02 M; the “cm, N ⇄ I” value was determined as 0.819 ± 0.006 M; the “m-value, I ⇄ D” value was −6.66 ± 0.30 kJ/mol/M; the “m-value, N ⇄ I” value is on record as −18.67 ± 0.76 kJ/mol/M. Moreover, in series [1] (GdnHCl), the “ΔG^0, I ⇄ D” value came out at 7.003 ± 0.315 kcal/mol and the “ΔG^0, N ⇄ I” value was 3.654 ± 0.151 kcal/mol. Besides, in series [1] (Urea), the “cm, I ⇄ D” value is reported as 10.03 ± 0.19 M; the “cm, N ⇄ I” value worked out at 2.85 ± 0.02 M; the “m-value, I ⇄ D” value is reported as −3.35 ± 0.62 kJ/mol/M; the “m-value, N ⇄ I” value was −4.70 ± 0.17 kJ/mol/M. In series [1] (Urea), the “ΔG^0, I ⇄ D” value was determined as 8.03 ± 1.49 kcal/mol and the “ΔG^0, N ⇄ I” value was found to be 3.203 ± 0.117 kcal/mol. In addition, in series [2] (ANS Fluorescence), the “T*” value amounted to 64.4 °C and the “ΔH*” value was 63.8 kcal/mol. Besides, in series [2] (Circular Dichroism), the “T*” value was determined as 65 °C and the “ΔH*” value was determined as 65 kcal/mol. Besides, in series [2] (Intrinsic Fluorescence), the “T*” value is 63 °C and the “ΔH*” value was found to be 60.7 kcal/mol. Further, the Stern-Volmer constant in series [3] (2 M GdnHCl) stood at 6.0 ± 0.1 M⁻¹. The substance also registered a Stern-Volmer constant in series [3] (buffer, 1° Celsius) of 2.2 ± 0.03 M⁻¹. Moreover, the Stern-Volmer constant in series [3] (buffer, 20° Celsius) was determined as 2.6 ± 0.03 M⁻¹.
